Measured values from patent US20250041339A1 (University of Pennsylvania, published 2025).
Residue numbers refer to the chain shown, from its start. Values belong to the binder of their own block, whether it stands above or below them.

What was measured:
[1] = target: T1, tCD45RO_WT (truncated, N-terminally myc-tagged wild-type CD45RO construct) (human, UniProt P08575 1-604); test: flow cytometry, his-tag staining of cells expressing myc-tagged truncated CD45 constructs
T1 construct: Expressed from lentivirus on CD45-negative NALM6 cells; also called WT CD45; CD45 WT
T1 sequence: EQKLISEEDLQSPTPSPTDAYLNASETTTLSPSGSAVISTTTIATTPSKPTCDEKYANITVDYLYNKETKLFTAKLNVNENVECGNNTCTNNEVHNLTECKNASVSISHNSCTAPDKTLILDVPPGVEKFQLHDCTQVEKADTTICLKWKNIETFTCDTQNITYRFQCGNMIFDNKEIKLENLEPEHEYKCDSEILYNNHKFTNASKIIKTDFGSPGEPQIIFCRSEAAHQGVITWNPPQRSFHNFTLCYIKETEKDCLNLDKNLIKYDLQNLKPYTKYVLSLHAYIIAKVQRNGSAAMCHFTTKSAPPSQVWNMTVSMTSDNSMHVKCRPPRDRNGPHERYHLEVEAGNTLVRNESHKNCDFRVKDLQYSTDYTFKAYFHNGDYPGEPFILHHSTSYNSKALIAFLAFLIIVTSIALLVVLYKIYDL
Excerpt: (§1) With the information obtained from the crystal structure (and given that FN domains are evolutionary conserved and stable structures), and without wishing to be bound by theory, it was hypothesized that the subdomains which are recognized by the CAR45-T cells can be narrowed down by sequentially truncating the extracellular domain. The constructs to generate the truncated CD45 constructs were de novo synthesized (FIG. 24A). To verify surface expression of the truncated CD45 constructs, all constructs were myc-tagged at the N-terminus to allow surface staining against the truncated CD45 expressing cell using anti-Myc antibodies followed by readout via flowcytometry. Cells expressing the truncated CD45 constructs were stained with recombinantly expressed, his-tagged scFv/antibody clones from which the CARs were made off. Positive staining for the his tag therefore only occurs when the scFv/antibody clones can bind truncated CD45.

[2] = target: T2, tCD45_RO_T8A (CD45RO with Thr8 changed to alanine) (human, UniProt P08575 1-604); test: antibody staining (figure cited in the text as FIG. 42, left)
T2 construct: The entry already carries the substitution, the signal peptide and the myc tag
T2 sequence: T1 sequence with T18A

[3] = target: T1, tCD45RO_WT (truncated, N-terminally …); test: staining of cells expressing truncated CD45 constructs with his-tagged scFv/antibody clones
Excerpt: as §1

binding result [2]: no binding
B2: antibody clone UCHL-1 (CD45RO-specific) (antibody, V domains shown)
VH: QITLKESGPGILQPSQTLSLTCSFSGFSLTTYGIGVGWIRQPPGKGLEWLTHIWWNDNKYYNTALRSRLTISKDSSNNQVLLKIANVDTADTATYYCLYGYTYWGQGTLVTVSA
VL: DVVMTQTPLSLPVSLGDQASISCRSSQSLLYSNGNTYLHWYLQKPGQSPKLLIYKLSNRFSGVPDRFSGSGSGTDFTLKISRVEAEDLGVYFCSQSTHVPWTFGGGTKLEIK
notes: also called muUCHL

binding result [3]: binds
B5: recombinantly expressed, his-tagged scFv/antibody clone 4B2 (scFv, V domains shown)
VH: GVQLQESGAELARPGASVKMSCKASGYTFTSYTMQWVKQRPGQGLEWIGYINPSSGYIKYNQKFKDKVTLTADKSSTTAYMQLSRLTSEDSAVYYCARRGSYFFDFWGQGTSVTVSS
VL: DIVITQDELSNPVTSGESVSISCRSSKSLLYKDGKTYLNWFLQRPGQSPQLLIYLMSTRASGVSDRFSGSGSGTDFTLEISRVKAEDVGVYYCQQLVEYPFTFGGGTKLEVK
notes: Soluble his-tagged scFv/antibody clone used to stain cells expressing truncated CD45; also called 4B2 scFv

More lines, now with the values behind:

B1: recombinantly expressed, his-tagged scFv from the BC8 clone (scFv, V domains shown)
VH: QVQLVESGGGLVQPGGSLKLSCAASGFDFSRYWMSWVRQAPGKGLEWIGEINPTSSTINFTPSLKDKVFISRDNAKNTLYLQMSKVRSEDTALYYCARGNYYRYGDAMDYWGQGTSVTVS
VL: DIVLTQSPASLAVSLGQRATISCRASKSVSTSGYSYLHWYQQKPGQPPKLLIYLASNLESGVPARFSGSGSGTDFTLNIHPVEEEDAATYYCQHSRELPFTFGSGTKLEIK
notes: Soluble his-tagged scFv used to stain cells; also called BC8 scFv
binding result [1]: binds

B3: recombinantly expressed, his-tagged scFv/antibody clone Gap8.3 (scFv, V domains shown)
VH: EVQLQQSGPELVKTGASVKISCKASGYSFTGYFIHWVKQSHGKSLEWIGYISCYNGATSYNQKFKGKATFTVDTSSSTAYMQFNSVTSEDSAVYYCVRNYYGNLDAMDYWGQGTSVTVSS
VL: DIVMTQSHKFMSTSVGDRVSITCKASQDVSTAVAWYQQKPGQSPKILIYSASYRYTGVPDRFTGSGSGTDFTFTISSVQAEDLAVYYCQQHYSTPRTFGGGTKLEIK
notes: Soluble his-tagged scFv/antibody clone used to stain cells expressing truncated CD45; also called Gap8.3 scFv
binding result [3]: binds

B4: recombinantly expressed, his-tagged scFv/antibody clone 9.4 (scFv, V domains shown)
VH: QVQLQQLGAELARPGASVKMSCKASGYTFTSYSIQWVKQRPGQGLEWIGYINPSSGYIKYNQHFRDRATLTADRSSSTAYMQLSSLTSEDSAVYYCARGNSGSFDYWGQGTTLTVSS
VL: DIVMTQAAPSVPVTPGESLSISCRSSKSLLHSSGITYLYWFLQRPGQSPQLLIYRMSNLASGVPDRFSGSGSGTAFTLRISRVEAEDVGVYYCMQHLEYPFTFGGGTKLEIK
notes: Soluble his-tagged scFv/antibody clone used to stain cells expressing truncated CD45; also called 9.4 scFv
binding result [3]: binds
